In patent publication US20240352136A1 (Hoffmann-La Roche, published 2024):

Molecular target: T1, human CD25 (alpha subunit of the interleukin-2 receptor, IL2RA) (human, UniProt P01589 22-272)
T1 sequence: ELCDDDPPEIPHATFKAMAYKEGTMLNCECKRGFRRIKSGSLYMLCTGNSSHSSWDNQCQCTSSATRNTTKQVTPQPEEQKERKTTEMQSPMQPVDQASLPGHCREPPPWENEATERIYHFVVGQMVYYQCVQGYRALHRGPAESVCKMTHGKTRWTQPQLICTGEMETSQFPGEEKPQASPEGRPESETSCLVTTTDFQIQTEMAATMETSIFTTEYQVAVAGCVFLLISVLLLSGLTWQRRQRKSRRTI
Test: cell-based or functional assay

B1: CD25 Mab (RG6292) (antibody, human IgG1, kappa, V domains shown)
VH: QVQLVQSGAEVKKPGSSVKVSCKASGGTFSSLAISWVRQAPGQGLEWMGGIIPIFGTANYAQKFQGRVTITADESTSTAYMELSSLRSEDTAVYYCARGGSVSGTLVDFDIWGQGTMVTVSS
VL: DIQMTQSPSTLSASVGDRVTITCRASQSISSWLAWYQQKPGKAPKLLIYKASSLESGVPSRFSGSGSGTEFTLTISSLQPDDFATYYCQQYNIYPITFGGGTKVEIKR
modifications: afucosylated Fc glycan (produced using the GlymaxX technology)
ADCC EC50, AML-22 target cells with activated NK cells, flow cytometry readout, 17 h: ~0.03 µg/mL
ADCC EC50, EOL-1 target cells with activated NK cells, flow cytometry readout, 17 h: ~0.03 µg/mL
ADCC EC50, EOL-1 target cells, CytoTox-Glo luminescence readout: 0.035 µg/mL
ADCC EC50, EOL-1 target cells, flow cytometry readout: 0.03 µg/mL
